# In patent US20160279221A1 (UNITED STATES OF AMERICA AS REPRESENTED BY THE SECRETARY OF …, published 2016):
# Assays:
# [1] = molecular target: T1, AMA1 on P. falciparum 3D7 strain parasites (Plasmodium falciparum); assay: cell-based or functional assay
# [2] = molecular target: T1, AMA1 on P. falciparum 3D7 strain …; assay: cell-based or functional assay; remark: listed apart in the source
# [3] = molecular target: T2, P. falciparum 3D7 AMA1 recombinant allelic protein (Plasmodium falciparum, UniProt P22621 83-531); assay: dot blot against 7 AMA1 allelic proteins
# T2 chain: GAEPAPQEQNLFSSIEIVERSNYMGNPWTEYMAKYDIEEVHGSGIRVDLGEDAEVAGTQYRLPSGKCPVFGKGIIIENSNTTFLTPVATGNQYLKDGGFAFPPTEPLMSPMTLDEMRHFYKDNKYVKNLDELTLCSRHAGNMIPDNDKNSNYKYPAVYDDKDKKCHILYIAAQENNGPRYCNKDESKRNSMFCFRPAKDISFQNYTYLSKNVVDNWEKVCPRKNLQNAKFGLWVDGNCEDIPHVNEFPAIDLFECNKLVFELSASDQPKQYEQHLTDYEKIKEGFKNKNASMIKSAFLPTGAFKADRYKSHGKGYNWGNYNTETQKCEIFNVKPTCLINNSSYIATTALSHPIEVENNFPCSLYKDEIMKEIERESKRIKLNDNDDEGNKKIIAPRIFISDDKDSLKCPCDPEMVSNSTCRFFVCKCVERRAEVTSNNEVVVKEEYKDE
# [4] = molecular target: T3, P. falciparum FVO AMA1 recombinant allelic protein (Plasmodium falciparum, UniProt P50490 83-531); assay: dot blot against 7 AMA1 allelic proteins
# T3 sequence: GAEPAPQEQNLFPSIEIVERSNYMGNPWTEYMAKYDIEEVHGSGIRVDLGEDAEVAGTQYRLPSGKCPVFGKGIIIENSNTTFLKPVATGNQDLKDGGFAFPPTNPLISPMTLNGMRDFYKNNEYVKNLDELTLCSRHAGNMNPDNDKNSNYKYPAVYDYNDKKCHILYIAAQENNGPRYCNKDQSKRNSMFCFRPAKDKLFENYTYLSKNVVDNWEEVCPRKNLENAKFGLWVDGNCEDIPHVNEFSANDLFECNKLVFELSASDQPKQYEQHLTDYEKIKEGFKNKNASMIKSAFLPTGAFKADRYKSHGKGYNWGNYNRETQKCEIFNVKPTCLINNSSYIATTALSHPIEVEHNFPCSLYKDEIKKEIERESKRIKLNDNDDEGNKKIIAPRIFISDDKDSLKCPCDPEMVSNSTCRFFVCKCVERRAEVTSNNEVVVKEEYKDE
# [5] = molecular target: T4, P. falciparum HB3 AMA1 recombinant allelic protein (Plasmodium falciparum, UniProt P50491 83-531); assay: dot blot against 7 AMA1 allelic proteins
# T4 sequence: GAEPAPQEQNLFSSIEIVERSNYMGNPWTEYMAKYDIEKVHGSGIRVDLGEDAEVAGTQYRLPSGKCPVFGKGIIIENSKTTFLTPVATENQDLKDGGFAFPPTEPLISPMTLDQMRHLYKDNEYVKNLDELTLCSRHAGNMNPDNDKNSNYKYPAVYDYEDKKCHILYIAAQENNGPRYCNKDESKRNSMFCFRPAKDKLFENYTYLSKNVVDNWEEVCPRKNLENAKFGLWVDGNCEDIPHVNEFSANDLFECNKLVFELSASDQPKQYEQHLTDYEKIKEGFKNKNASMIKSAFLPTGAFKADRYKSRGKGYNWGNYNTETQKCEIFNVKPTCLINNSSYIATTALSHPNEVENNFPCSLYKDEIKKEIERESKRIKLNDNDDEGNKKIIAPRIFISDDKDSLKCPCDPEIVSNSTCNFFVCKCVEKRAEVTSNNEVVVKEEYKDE
# [6] = molecular target: T5, P. falciparum W2mef AMA1 recombinant allelic protein (Plasmodium falciparum, UniProt P50492 83-531); assay: dot blot against 7 AMA1 allelic proteins
# T5 chain: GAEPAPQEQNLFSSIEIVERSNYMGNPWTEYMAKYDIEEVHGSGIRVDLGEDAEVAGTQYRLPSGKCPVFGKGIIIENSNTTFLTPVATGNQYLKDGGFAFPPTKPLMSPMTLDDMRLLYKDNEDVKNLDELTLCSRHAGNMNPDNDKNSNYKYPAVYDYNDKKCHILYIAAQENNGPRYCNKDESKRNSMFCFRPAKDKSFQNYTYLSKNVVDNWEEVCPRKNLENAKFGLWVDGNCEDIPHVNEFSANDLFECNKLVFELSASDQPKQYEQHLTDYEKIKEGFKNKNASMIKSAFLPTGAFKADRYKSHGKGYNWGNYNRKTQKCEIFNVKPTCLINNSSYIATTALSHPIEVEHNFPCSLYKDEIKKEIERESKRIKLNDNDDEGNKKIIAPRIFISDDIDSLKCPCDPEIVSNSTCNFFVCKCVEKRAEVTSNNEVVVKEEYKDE
# [7] = molecular target: T6, P. falciparum 7G8 AMA1 recombinant allelic protein (Plasmodium falciparum, UniProt P50492 83-531); assay: dot blot against 7 AMA1 allelic proteins
# T6 sequence: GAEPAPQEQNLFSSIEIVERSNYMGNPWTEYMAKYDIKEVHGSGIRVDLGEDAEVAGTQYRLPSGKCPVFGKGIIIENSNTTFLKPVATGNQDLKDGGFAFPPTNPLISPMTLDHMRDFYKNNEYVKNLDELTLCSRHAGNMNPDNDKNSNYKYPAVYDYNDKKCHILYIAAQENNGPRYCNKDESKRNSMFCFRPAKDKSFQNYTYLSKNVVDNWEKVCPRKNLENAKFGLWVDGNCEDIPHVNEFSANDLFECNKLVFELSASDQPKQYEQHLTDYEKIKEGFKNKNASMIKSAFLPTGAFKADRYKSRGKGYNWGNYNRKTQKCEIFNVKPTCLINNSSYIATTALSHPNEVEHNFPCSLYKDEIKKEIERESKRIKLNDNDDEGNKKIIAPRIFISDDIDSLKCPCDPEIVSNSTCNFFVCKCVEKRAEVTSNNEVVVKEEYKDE
Binder,"IC30 concentration (30% inhibition against the 3D7 target parasites, GIA) [1]",Inhibition (GIA at 1 mg/ml against the 3D7 target strain) [2],binding result [3],binding result [4],binding result [5],binding result [6],binding result [7]
"monoclonal antibody 1B10 (antibody, V domains shown) VH: EVQLQESGPGLVQPSQSLSITCTVSGFSLNMYGVHWVRQSPGKGLEWLGVIWSGGTTDYNAAFISRLSINRDNSKSQVFFKMNSLQTDDTAIYYCVRNNGYYVDAMDYWGQGTSVAVSS VL: DVVMTQTPLSLPVSLGDQASISCRSSQSLVHSNGNTYLHWYLQRPGQSPKLLIYKVSNRFSGVPDRFSGSGSGTDFTLKISRVEAEDLGVYFCSQSTLGPTFGGGTKLEMQR",150 µg/mL,65%,–,–,–,–,–
"monoclonal antibody 4E11 (antibody, V domains shown) VH: EVQLQESGPGLVRPSQSLSITCTVSGFSLPLYGVHWVRQSPGKGLEWLGVIWSGGSTDYNAAFVSRLSISKDNSKSQVFFEMNSLQADDTATYYCARNNGYYVDAMDYWGQGTSVTVSS VL: DVVMTQTPLSLPVSLGDQASISCRSSQSLVHSNGNTYLHWYLQKPGQSPKLLIFKVSNRFSGVPDRFSGSGSGTDFTLQISRVEAEDLGFYFCSQSTHVPTFGGGTKLEIKR",220 µg/mL,62%,–,–,–,–,–
"monoclonal antibody 4E8 (antibody, V domains shown) VH: EVQLQESGPGLVQPSQSLSITCTVSDFSLIMYGVHWVRQSPGKGLEWLGVIWSGGSTDYNAAFISRLSISKDNSKSQVFFKMNSLQADDTAIYYCARNNGYYVDAMDYWGQGTSVTVSS VL: DVVMTQTPLSLPVSLGDQASISCRSSQSLVHNNGNTYLHWYLQKPGQSPKLLIYKVSNRFFGVPDRFSGSGSGTDFTLKISRVEAEDLGVYFCSQSTHVPTFGGGTKLEIKR",150 µg/mL,67%,–,–,–,–,–
"monoclonal antibody 1E10 (antibody, V domains shown, Mouse monoclonal raised against QV, purified from ascites on Protein G; also called mAb 1E10; Monoclonal 1E10) VH: EVQLQESGAELAKPGASVKLSCKASGYTFTNYLMHWIKQRPGQGLEWIGYINHGSGYTNYNQKFIDRATLTADKSSSTAYMQLRSLTYEDSAVYYCVHGYFDVWGTGTTVTVSS VL: QIVLTQSPTIMSASPGEKVTMTCSASSSVTYMHWYQQKPGTSPKRWIYDTSKLASGVPARFSGSGSGTSYSLTISSMEAEDAATYYCHQRSSYPTFGGGTKLEIKR",1900 µg/mL,20%,binds,binds,binds,binds,binds
